Results reported in the domain aggregation screens of Martell et al. (2025).

Assay: soluble fraction after stress (log2 fold change); higher = more stays soluble; pooled small domains, quantitative proteomics
Details: stress: 75 degC
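Also: 20 min heating vs room temperature control held 20 min.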

Sequence	soluble fraction (log2)
HMKNLHLVPNVVGMSAKEAKNTLKSFNIKYKPIYGSSNKYDENYIFNQNPRKGKTIKEQEVVTIYISRGAD	-1.42
HMKNNNIIFSEFLKEVENGRVVEVRIQGNNIQGIMSNGKEFTTYSPNYPNLIEKLTETGVSISAAPL	0.434
HMKNPLIIGMTKDKIIELIGMPDNIKFLDSSLSKSEVWNYDKFGKKLYIKDEKLYQIENIEE	0.0985
HMKNSAAKETILAFLKKNGGELFTQMQIIEKFQKMIPAPVLRITLEELLNKGQVEITSKGKYYLSVKGS	-2.08
HMKNSKIVIQKRHNHILELLKQNRTMDVTVLAERLGVTGATIRRDLKKLEQEGTIVRSFGKVSFVG	-2.18
HMKNTVGEYRKLKSTTILYSNSDLTGTKYTYLPNTTVKILKNISSTVDYVYIKATNRYAYINIYAYT	-2.69
HMKNVENIILEQLKKNIYDDLNNASFEEIILIDAEKSIYKGTIKANYIEYNFKINLSTGEILKWKLK	-1.95
HMKNVSVKMILSPESLGEIQVDLVFSKGKDLEIMLRPETAEVAKLIQSNSASLREQLSLEHKGPLSLNVS	-0.32
HMKNYALHEPMMDRIAKVNALYDAGHTIKYMTARGAVSMVDYYDLTKSQLDSWGAKYHELSVGK	0.12
HMKNYYEVLGVPRDAAAPDIKRAFRKLAKQFHPDHNPGDAKAEERFKLVSQAYDVLGDEEKRKLYDQFGE	0.0891
HMKNYYSILGVTPDSSEAEIKSAYRRLARKFHPDVNPDGASRFKDISEAYETLSDAKKRFQYDTINGF	-0.0709
HMKPATSITFIPSERPDLVEQLSKITFDKKDSLYENYINLNWLTFEAISVYMREGDIIGFST	-0.148
HMKPDAAKREQLIDIALRLFSQQGIARTSLNAIAREAGVTPAMLHYYFNSREQLLDVMIEERFL	-3
HMKPDIETQLKKYRYKVSVSKKIKPYMVFSDKTLSELLTKSPTNLKELEDINGFGPVKVQEYGAAILEILK	-1.19
HMKPDSEFTSQDLWQNDLAGTGSAAYRRDKMGALLGIGYGNAKRFLERLNSYGVTRSEFDEALAQLGE	-0.188
HMKPEDIALLEEIRDLLKEKKSVIVNLEYVNKDVARRIVDFISGGVFALNGHIQKVSNSIFLVAPMN	-0.00621
HMKPMNNNDILRRLRYTFDLSDDKMMETFALGGYEANRSEISDWLKKDDHPEQKSLYDKSLSHFLNGFIV	-0.178
HMKPPVQVIGKAVVTASSLNVRTGPGTGHGIITSLPRNTEVELLEQQGEWYKIRRGSTVGYVHGGYLKIN	-0.311
HMKPRISMITLGVKDLNKSIEFYGGGLGFPRKKTEPEIAIFKLNGSWLSLYNRGLLAEDANVS	-0.184
HMKPSKYTLAIDSIPVHVTRKQMKSIRLRVTPLGEVRVSAPYGVKDSEIVEMVRSRKLWIESQQRA	-2.34
HMKPSTETLYATARINVRAAADTSAEKLGSIEMGEAVVRTGTDGDWSIIEYNGSTGYVKSEYLTANAGDAT	0.232
HMKPSVEIKVNGGTGAGVVKKGGSITVTANEPAEGKVFTGWQDESGKIVSTQKEYTFTVAEGTTLTAVYED	≥ 1.04
HMKPTGWVRGDMGVVDKGQLSITQGTVNVRSGPGLSYEILDQVRRGDRFPVIKSQSGWHNISM	0.249

Sequence	soluble fraction (log2)
HMKPTSLLGIERYLGSGLIRGVGPSTAKQIVEHFGMETMEVLTEHPERLQEVHGMGRKRWRQIAESFQEQQ	-0.869
HMKPVTVINFVGMTEEKAMTEAEKLGLVVGASSSEYSDEPAGTVIRQSISVSTEAKTGDNIYFTVSKGPE	0.677
HMKQETLNEIGTKIRKLRESKNLSIQEFADKLEMEYNNVIRIEKGRTNFTIGTLVKIANSLEVNLKDI	-2.41
HMKQFVVQYYGIDGEVINSVYKNGMSDLTSYEPEKIDGKNFKGWSLSEDSKKVIDENYRINSDVNLYAVYT	0.758
HMKQHPTIDLQIGQKLHYKEDVFEVTRFAKDKNGQDMVILKDPSIGSGIEIPWYRSKLEEIIESGQYKIT	0.361
HMKQIEEIIARYTNENTPLMMILSDVQREYGYIPLDVQELISEKTGIPVAEIYGVVTFYSFFSL	-0.676
HMKQISQNIHRLRKEKGMSQEQLAQALHVTRQTVSAWERGIAQPSLDVLGQIAQLLGVEPERLLYGE	0.288
HMKQLQIPYSFAKRHGVLLRYEGDQAFIVRRDNTSMLALQEARRLLGHPAHYLLYSEQEFNQLLSASFA	-2.69
HMKQLVVVPRVVSLSEGKAREDVGDRGLVVDRVEMDTLRTPYENTVTRQEPAADSRVPVGTRVTLWISPGV	0.567
HMKQNSDDGEIRKIIIEILDNNLDNVNKYKSGRTNVLDFFVGQVMKQTRGQANPELTRSILTEELSN	-0.169
HMKQQTRAELLDEFAKAHAERGLYFNRDYEQGEIQALQPDKAREYLQSALEARTERQQASEQDR	0.262
HMKQTDQELAEMLRFRAAQRGLLMSDEVVNYVMTRVERSAKSLIMLLDRIDRAALAQARPVTIPLINEL	-0.523
HMKQVEVPRLVGLTLREAQAVLGQVGLRIGLISRAALLASPREQIVEQIPVAGERNIATPYVNLLVNVP	-0.895
HMKRDEYIAQLKKYLKRLPKKEYDSAIEYFTEYFDEAGPERELEVIQELGQPKEAAKEMLLQLLNE	-0.105
HMKRDNETRRRIVAAAEELFRAKGLDGVNMRELAEMAGVNKGLLHYYFKTKQALFREILVGQMAL	-1.31
HMKRDRLYGITIYLLNHGRTSAKTLAEYFEVSVRTIQRDMDALSMAKIPIIAYPGSDGGYEIQEGYRL	-3.03
HMKRDYELPAFIETYLKKNHVAIDTKSAAMIAEHIGADLSRLISELDKVMISLPDDDRRVTPDVVEREI	-0.0791
HMKREETLKALATKNANYVARSGRRYSFEPMNPYERRIIHTAVQEIEGVTSRSIGSGMDRRVLIEPEGGV	-0.322
HMKRELFVEPGMRLEHTPSKTSGPVVSFIEGVIVVIKDQLGSEHRFDPVPGFFRHEGDLVALRSPLL	-0.996
HMKRIDTILETFAKVHKHIPSKLILLGDGPELLDMRKIARSLHIEDDVLFLGKQDQVSKFYQMADLVLLL	-0.314
HMKRIHLSDEEKTDLESLHYSSNDGKQRDRIKAVLLRSEGWTVPMISQALRIHETTVTRYLNDYREGKLKN	-0.724
HMKRITKKELKQAIVDVFADKPGQSFNYKQLATIIGIKDDPTRRMITDILYELVQEERIVELYRGKFKMEM	-2.58
HMKRLPFSFAKRFGVVVEDGEPPIVHHRDGASAETLLEVRRRLGQVFTLQRHDAEAFERLLTQAYQR	-1.15

Sequence	soluble fraction (log2)
HMKRPEPESPEAERRSQRAADWLVRRDRGLTAAEQDEFLQWLAIDPRHGEWFALHRSVVGEFSA	-0.081
HMKRQDFEFLVNLLRQNAGWDFDEEQYFVVDKKISNFIREKGYASVEDLIDELKVGAKPLISQVVESLAL	-0.576
HMKRTFGEISPLPSGRYRARYRGPDGERYPAPVTFLSRMDAETWLSAQARKVSSGDWTPPVGVVA	-0.34
HMKRWHVGDPIDALTAAGKVPSWSTIRQRFWKTIAALYPDIEQSERLQRGLAMLDEAGTSIELHHP	-1.03
HMKRYLFEEVLAFLKHNDGKSFNYKQLGAAMEIDNESDRFALLETLEELKHQGFVIETDIGKYAAKE	-0.868
HMKSDELTKRRRLQIIEAAERSFRKRGFHATTLREIAAEFGMSVGHIYNYFSGKDAILEALIHQKIDD	-1.01
HMKSKHENLIDGLLKMISSMKPHDRLTPERQLAEEWAVSRMTLRRALEVLQFQGKIYTVPSSGLFVAEPK	-2.89
HMKSKPRVPFGSLVEMGILKPGSILFDPKGKIKTKVMVDGSIKYKETEGSIHKVAAQIMGTESYNGWTYW	0.488
HMKSLDDVISKFRPTGSENKIDFRKRVISEIHAQGFFKIKGSVNHVAKALGVTRYTVYNYLDKLND	-3.65
HMKSLLTHAEEFVRNNNGRWMLAETSSKESYSSKQNFYLRNNYSIISEIRDFYSVGDNLLVFGKFFT	0.201
HMKSNESAELGERMLNKALLALHTDSSKISDTQWQKLLRDYGAKNKQEILTDIGLGKRLNVMVAHQLMAMG	-0.271
HMKSNIGENIRQLREKREMSVERVARMLEVKPATVIGWESGRELPEPAELGLLAKLFDVTVEELN	-0.121
HMKSNKEKIYDFIQMHDTAEKEGGVSTTYIAQALSLQRTNVSSLLNALVEEGRIHKSNGRPVLYSIAG	-0.242
HMKSPAQAAALKKLWAAIKQNEQGEVVEVLFHNRKLTDAGLVHLKGLANLQTLNLYDTKITGAGLVHL	-0.0641
HMKSVLDDVAGLGPVRKKALLKAMGGFTRLRAASLDDILAVRAVPEEVAREVFAVLAQYNSVRNNDISE	-1.08
HMKSVTAPLPGTVTQILVKVGDAVKAGDTVLMLEAMKMENSITAEAAGTVKAIRVEKGAQVQGGDVLIEM	0.157
HMKTAAKVLGESGGKPVTVQSGRYGPYVQLGTIRATLPKDLDQEAVTLDKALELIDAKAERSGK	0.00631
HMKTDFEIDITVKASSLRVVASPGGDELVGTVTRGDRVTQLATPKDGWILIKMTDGRLGYVPESLLLFP	-1.87
HMKTEIGQAMRKLRKAKKMTQDTLAEKLGVAPANISRYEKGQQGIEVDKLPTLADALGVSVPEFFAIASG	0.0367
HMKTELAYDFHSRIRDARIREGLSQVDLAKRMNEKIAVIQKAENGIRPTDSLIAKFSKALSVELYVE	-2.12
HMKTGIIYGVNGPVIYLKGDTGFKISEMVYVGPEKLVGEVIGLKKHMTTVQVFEETTGLKPGETVIGTGDA	-0.378
HMKTGTVQDFIAKYGMSSKSPSSWFNSLTQIQKAEAKALKAQSGLTWNEWYEKNIYNGDGSNL	-0.0584
HMKTKHISIAEGMSLYTRDRSPFYWGYLNIEGVIHKKSLKTDVVDEAIKLLSIWKNELLNSITK	-1.19
